Results reported in patent publication US20240084031A1 (Seagen, published 2024).
One block for each binder: values may come before it.

How the values were obtained:
[1] = biological target: T1, human FcγRI, full length on stably transfected CHO cells (human, UniProt P12314 16-374); experiment: cell-based competition binding, flow cytometry (LSRII): serial dilutions of unlabelled competitor against 50 nM Alexa Fluor 488-labelled h1F6 IgG1 on CHO cells expressing human FcγRI
T1 construct: whole, on cells; also called CD64; Fcγ receptor I
Method: (§1) Labeled cells were detected using an LSRII FACS analyzer.
(§2) Binding of humanized anti-CD70 (h1F6) antibody to CHO cells expressing full-length FcγRI was determined by competition binding. […] Labeled cells were detected using an LSRII FACS analyzer.

[2] = biological target: T2, human FcγRIIIa, 158V (high affinity), full length on stably transfected CHO cells (human, UniProt P08637 17-254); experiment: cell-based competition binding, flow cytometry (LSRII): serial dilutions of unlabelled competitor against 100 nM Alexa Fluor 488-labelled h1F6 IgG1 on CHO cells expressing human FcγRIIIa 158V
T2 construct: whole, on cells; CHO DG44 line '158V'; also called CD16
Method: as §1
(§3) Binding of variant humanized anti-CD70 (h1F6) antibodies to CHO cells expressing full-length FcγRIIIa was also determined by competition binding. […] Labeled cells were detected using an LSRII FACS analyzer.

[3] = biological target: T3, human CD70 on CD70 positive cell lines (human, UniProt P32970 1-193); experiment: 786-O cell binding, apparent KD of the IgG
T3 construct: whole, on cells
T3 sequence (looked up): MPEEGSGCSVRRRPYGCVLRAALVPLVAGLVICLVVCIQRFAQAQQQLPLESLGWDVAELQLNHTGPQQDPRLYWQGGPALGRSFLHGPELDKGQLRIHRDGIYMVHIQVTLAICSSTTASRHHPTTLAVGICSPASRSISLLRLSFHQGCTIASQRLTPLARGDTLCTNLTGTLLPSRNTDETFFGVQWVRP

[4] = biological target: T4, mouse CD70 (the corresponding antigen from mice) (mouse, UniProt O55237 45-195, limits assumed); experiment: not described (statement in the example on maximum tolerated dose)
T4 construct: Named only as 'the corresponding antigen from mice'
T4 sequence (looked up): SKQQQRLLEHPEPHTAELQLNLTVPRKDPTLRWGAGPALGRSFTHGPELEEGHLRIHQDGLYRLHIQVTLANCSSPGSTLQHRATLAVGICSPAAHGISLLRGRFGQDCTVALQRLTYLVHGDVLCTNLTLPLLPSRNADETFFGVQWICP

[5] = biological target: T3, human CD70 on CD70 positive cell lines; experiment: saturation binding of europium-labelled antibody to CD70+ ACHN cells (apparent KD)
Source text: (§4) Humanized 1F6 antibody derivatives HDLA (hVHD and hVLA), HHLA (hVHH and hVLA), and HJLA (hVHJ and hVLA), and c1F6 were transiently expressed in 293 cells, labeled with europium using the Eu-N1 iodoacetamido chelate (Perkin Elmer), and analyzed for saturation binding to a panel of CD70 positive cell lines as described in detail in U.S. Patent Application No. 60/673,070, filed Apr. 19, 2005; and PCT International Publication No. WO 2006/113909.

[6] = biological target: T3, human CD70 on CD70 positive cell lines; experiment: saturation binding of europium-labelled antibody to CD70+ 786-O cells (apparent KD)
Source text: as §4

[7] = biological target: T3, human CD70 on CD70 positive cell lines; experiment: saturation binding of europium-labelled antibody to CD70+ Caki-1 cells (apparent KD)
Source text: as §4

[8] = biological target: T3, human CD70 on CD70 positive cell lines; experiment: saturation binding of europium-labelled antibody to CD70+ Caki-2 cells (apparent KD)
Source text: as §4

[9] = biological target: T1, human FcγRI, full length on stably …; experiment: cell-based competition binding on CHO cells expressing full-length FcγRI, 'performed as described previously' (50 nM Alexa Fluor 488-labelled h1F6 IgG1)
Method: as §2
(§5) Binding of one of the variants, IgG1 S239C, to CHO cells expressing full-length FcγRIIIa and FcγRI was determined as described above. […] The control, parent antibody h1F6, binds to FcγRIIIa-expressing cells and FcγRI-expressing cells.

[10] = biological target: T2, human FcγRIIIa, 158V (high affinity), …; experiment: cell-based competition binding on CHO cells expressing full-length FcγRIIIa, 'performed as described previously' (158V line, 100 nM Alexa Fluor 488-labelled h1F6 IgG1); the sheet says only FcγRIIIA
Method: as §3, §5

[11] = biological target: T3, human CD70 on CD70 positive cell lines; experiment: 786-O cell binding; IC50 of the vcF2 conjugate over IC50 of the unconjugated IgG

T1 sequence (P12314 16-374): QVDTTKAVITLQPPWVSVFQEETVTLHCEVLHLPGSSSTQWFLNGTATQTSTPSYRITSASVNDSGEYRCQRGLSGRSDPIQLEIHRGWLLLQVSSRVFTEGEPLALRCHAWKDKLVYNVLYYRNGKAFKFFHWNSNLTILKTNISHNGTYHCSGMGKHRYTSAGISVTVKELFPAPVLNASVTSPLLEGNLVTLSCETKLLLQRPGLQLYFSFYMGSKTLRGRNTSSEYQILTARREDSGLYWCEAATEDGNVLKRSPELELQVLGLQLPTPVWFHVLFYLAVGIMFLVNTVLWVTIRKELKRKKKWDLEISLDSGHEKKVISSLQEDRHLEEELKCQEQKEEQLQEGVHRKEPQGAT
T2 sequence (P08637 17-254 F176V): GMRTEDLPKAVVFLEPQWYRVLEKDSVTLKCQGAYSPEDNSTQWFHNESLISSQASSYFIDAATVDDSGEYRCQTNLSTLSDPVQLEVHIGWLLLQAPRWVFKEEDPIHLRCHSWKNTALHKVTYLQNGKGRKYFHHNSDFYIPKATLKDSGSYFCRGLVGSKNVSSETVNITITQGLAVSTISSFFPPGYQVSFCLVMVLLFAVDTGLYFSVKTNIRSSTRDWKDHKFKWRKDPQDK

binding result [1]: binds | binding result [2]: binds
B1: h1F6 IgG1 vcMMAF(4) antibody drug conjugate (antibody)
heavy: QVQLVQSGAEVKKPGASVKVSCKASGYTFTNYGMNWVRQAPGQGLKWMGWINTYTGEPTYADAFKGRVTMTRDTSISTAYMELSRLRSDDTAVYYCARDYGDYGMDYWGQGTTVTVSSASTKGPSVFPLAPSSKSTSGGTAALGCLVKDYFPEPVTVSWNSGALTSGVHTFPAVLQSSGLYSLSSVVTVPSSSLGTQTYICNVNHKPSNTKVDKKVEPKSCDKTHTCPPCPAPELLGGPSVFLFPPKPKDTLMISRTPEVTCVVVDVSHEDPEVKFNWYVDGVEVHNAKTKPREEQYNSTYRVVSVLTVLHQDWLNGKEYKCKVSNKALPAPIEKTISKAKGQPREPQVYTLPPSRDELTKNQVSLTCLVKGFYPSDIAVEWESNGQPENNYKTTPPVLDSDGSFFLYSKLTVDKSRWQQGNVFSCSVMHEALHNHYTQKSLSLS
light: DIVMTQSPDSLAVSLGERATINCRASKSVSTSGYSFMHWYQQKPGQPPKLLIYLASNLESGVPDRFSGSGSGTDFTLTISSLQAEDVAVYYCQHSREVPWTFGQGTKVEIKRTVAAPSVFIFPPSDEQLKSGTASVVCLLNNFYPREAKVQWKVDNALQSGNSQESVTEQDSKDSTYSLSSTLTLSKADYEKHKVYACEVTHQGLSSPVTKSFNRGEC
modifications: vcMMAF conjugated, mean loading of 4 drugs/antibody; attachment residues not stated
notes: also called h1F6 G1-vcMMAF(4); IgG1-F4

Kd [3]: 0.6 nM | Kd [5]: 0.68 nM | Kd [6]: 0.46 nM | Kd [7]: 1.36 nM | Kd [8]: 0.37 nM | IC50 (read off the curve) [9]: ~6 nM | IC50 (read off the curve) [10]: ~200 nM
B2: humanized 1F6 antibody derivative HJLA (hVHJ and hVLA), human IgG1 (antibody)
heavy: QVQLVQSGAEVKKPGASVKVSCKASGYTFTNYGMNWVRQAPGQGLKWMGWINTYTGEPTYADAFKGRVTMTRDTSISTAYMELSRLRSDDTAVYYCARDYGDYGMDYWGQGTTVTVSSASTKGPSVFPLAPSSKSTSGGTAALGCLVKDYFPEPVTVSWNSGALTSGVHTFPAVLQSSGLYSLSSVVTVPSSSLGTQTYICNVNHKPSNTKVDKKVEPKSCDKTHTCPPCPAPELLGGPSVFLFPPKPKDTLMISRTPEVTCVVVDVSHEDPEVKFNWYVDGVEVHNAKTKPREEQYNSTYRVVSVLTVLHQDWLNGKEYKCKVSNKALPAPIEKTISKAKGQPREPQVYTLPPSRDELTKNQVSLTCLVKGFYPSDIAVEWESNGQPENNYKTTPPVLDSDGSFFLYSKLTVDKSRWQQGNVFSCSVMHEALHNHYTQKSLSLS
light: DIVMTQSPDSLAVSLGERATINCRASKSVSTSGYSFMHWYQQKPGQPPKLLIYLASNLESGVPDRFSGSGSGTDFTLTISSLQAEDVAVYYCQHSREVPWTFGQGTKVEIKRTVAAPSVFIFPPSDEQLKSGTASVVCLLNNFYPREAKVQWKVDNALQSGNSQESVTEQDSKDSTYSLSSTLTLSKADYEKHKVYACEVTHQGLSSPVTKSFNRGEC
notes: also called h1F6 HJLA; h1F6 IgG1
binding result [4]: no binding

IC50 (read off the curve) [1]: ~10 nM
B3: h1F6 IgG4 vcMMAF(4) antibody drug conjugate (antibody)
heavy: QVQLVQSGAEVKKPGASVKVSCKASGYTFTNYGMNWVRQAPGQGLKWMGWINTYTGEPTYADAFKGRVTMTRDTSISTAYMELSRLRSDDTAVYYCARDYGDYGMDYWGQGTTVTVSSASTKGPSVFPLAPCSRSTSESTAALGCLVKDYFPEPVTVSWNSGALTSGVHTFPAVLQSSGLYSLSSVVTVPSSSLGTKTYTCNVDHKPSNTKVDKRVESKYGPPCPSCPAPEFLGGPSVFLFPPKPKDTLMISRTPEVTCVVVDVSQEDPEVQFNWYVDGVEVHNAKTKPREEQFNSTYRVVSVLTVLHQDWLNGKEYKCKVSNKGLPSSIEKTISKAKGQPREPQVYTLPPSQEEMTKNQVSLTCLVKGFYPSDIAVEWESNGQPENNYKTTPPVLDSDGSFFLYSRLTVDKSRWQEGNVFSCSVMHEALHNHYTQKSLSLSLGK
light: DIVMTQSPDSLAVSLGERATINCRASKSVSTSGYSFMHWYQQKPGQPPKLLIYLASNLESGVPDRFSGSGSGTDFTLTISSLQAEDVAVYYCQHSREVPWTFGQGTKVEIKRTVAAPSVFIFPPSDEQLKSGTASVVCLLNNFYPREAKVQWKVDNALQSGNSQESVTEQDSKDSTYSLSSTLTLSKADYEKHKVYACEVTHQGLSSPVTKSFNRGEC
modifications: vcMMAF conjugated, mean loading of 4 drugs/antibody; attachment residues not stated
notes: also called h1F6 G4-vcMMAF(4); IgG4-F4

Kd [3]: 1 nM | IC50 (read off the curve) [9]: ~10 nM | binding result [10]: binds
B4: h1F6 IgG1 S239C (antibody)
heavy: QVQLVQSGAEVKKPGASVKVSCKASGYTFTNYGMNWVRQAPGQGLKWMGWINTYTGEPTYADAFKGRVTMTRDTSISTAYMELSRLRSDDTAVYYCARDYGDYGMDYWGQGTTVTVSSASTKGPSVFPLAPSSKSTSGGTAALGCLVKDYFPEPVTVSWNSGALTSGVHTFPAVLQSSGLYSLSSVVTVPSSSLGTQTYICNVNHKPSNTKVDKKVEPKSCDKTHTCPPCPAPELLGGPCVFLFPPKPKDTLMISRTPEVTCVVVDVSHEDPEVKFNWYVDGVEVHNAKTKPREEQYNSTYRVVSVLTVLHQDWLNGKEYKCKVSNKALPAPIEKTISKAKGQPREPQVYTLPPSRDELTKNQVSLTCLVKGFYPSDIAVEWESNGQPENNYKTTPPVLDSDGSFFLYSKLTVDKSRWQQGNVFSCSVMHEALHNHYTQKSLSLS
light: DIVMTQSPDSLAVSLGERATINCRASKSVSTSGYSFMHWYQQKPGQPPKLLIYLASNLESGVPDRFSGSGSGTDFTLTISSLQAEDVAVYYCQHSREVPWTFGQGTKVEIKRTVAAPSVFIFPPSDEQLKSGTASVVCLLNNFYPREAKVQWKVDNALQSGNSQESVTEQDSKDSTYSLSSTLTLSKADYEKHKVYACEVTHQGLSSPVTKSFNRGEC

IC50 IgG-vcF2 / IC50 IgG [11]: 1.1 ratio | IC50 (read off the curve) [9]: ~8 nM | binding result [10]: binds
B5: h1F6 IgG1 S239C conjugated to vcMMAF (average of 2 drugs/antibody) (antibody)
heavy: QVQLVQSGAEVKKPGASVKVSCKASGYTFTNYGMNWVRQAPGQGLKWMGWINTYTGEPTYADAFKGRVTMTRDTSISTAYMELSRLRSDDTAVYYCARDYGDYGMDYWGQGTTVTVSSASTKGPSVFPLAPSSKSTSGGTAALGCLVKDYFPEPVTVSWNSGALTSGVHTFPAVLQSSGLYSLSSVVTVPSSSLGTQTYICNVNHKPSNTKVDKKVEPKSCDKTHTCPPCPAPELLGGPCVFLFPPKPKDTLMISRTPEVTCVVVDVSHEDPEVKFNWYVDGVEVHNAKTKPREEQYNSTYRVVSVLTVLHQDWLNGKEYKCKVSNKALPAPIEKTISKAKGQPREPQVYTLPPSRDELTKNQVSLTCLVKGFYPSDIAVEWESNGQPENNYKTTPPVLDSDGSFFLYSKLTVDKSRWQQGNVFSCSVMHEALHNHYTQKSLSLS
light: DIVMTQSPDSLAVSLGERATINCRASKSVSTSGYSFMHWYQQKPGQPPKLLIYLASNLESGVPDRFSGSGSGTDFTLTISSLQAEDVAVYYCQHSREVPWTFGQGTKVEIKRTVAAPSVFIFPPSDEQLKSGTASVVCLLNNFYPREAKVQWKVDNALQSGNSQESVTEQDSKDSTYSLSSTLTLSKADYEKHKVYACEVTHQGLSSPVTKSFNRGEC
modifications: vcMMAF conjugated, average of 2 drugs/antibody; attachment residues not stated for the material tested
notes: also called IgG1 S239C vcMMAF; IgG1 S239C IgG-vcF2
